Laboratory results reported in patent publication US20180305432A1.

Target: self-lipid accumulated in leukemia cells peptide on CD1c (human)
Test: mLPA titration on K562-CD1c cells; CD69 on transduced Jurkat 76 b2m- cells (FIG. 5B); highest of the three TCRs titrated; full-length, on cells
Details: chains Valpha:Vbeta

- EC50 of peptide: 100 µg/mL
B1: TCR DN4.99 (protein)
chain 1: AQTVTQSQPEMSVQEAETVTLSCTYDTSESDYYLFWYKQPPSRQMILVIRQEAYKQQNATENRFSVNFQKAAKSFSLKISDSQLGDAAMYFCAYRSPLNTGTASKLTFGTGTRLQVTL
chain 2: DVKVTQSSRYLVKRTGEKVFLECVQDMDHENMFWYRQDPGLGLRLIYFSYDVKMKEKGDIPEGYSVSREKKERFSLILESASTNQTSMYLCASSPWVSSYEQYFGPGTRLTVT
